Results reported in ChEMBL document CHEMBL2074526, “ATP-dependent transport of amphiphilic cations across the hepatocyte canalicular membrane mediated by mdr1 P-glycoprotein” (FEBS Lett, 1994).

Key:
Assay type in all cases: functional, cell membranes
[1] = biological target: Multidrug resistance protein 1a (Rattus norvegicus) (UniProt Q6PSM0); experiment: (§1) TP_TRANSPORTER: uptake in rat canalicular membrane vesicle
[2] = tested on: C=C[C@H]1CN2CC[C@H]1C[C@@H]2[C@@H](O)c1ccnc2ccc(OC)cc12; experiment: as §1
[3] = tested on: C=CC1C[N+]2(CCCCC)CCC1CC2C(O)c1ccnc2ccc(OC)cc12; experiment: TP_TRANSPORTER: uptake in rat canalicular plasma membrane vesicles; conditions: Canalicular plasma membrane vesicle

Compound	Activity [1]	Km [2] [µM]	Km [3] [µM]
CCC1C[N+]2(CCCC3(C)N=N3)C3CC45c6ccccc6N(C)C4C2CC1C3C5O (stereo not drawn)	substrate [+]		
Multidrug resistance protein 1a (Rattus norvegicus), Q6PSM0		5	0.4
